This data set in a line: protein stability index of a GFP-peptide fusion (GPS, HEK-293T) (PSI 1-6); higher = more stable. The note with it: c terminus: a fixed tail appended.

± gives the standard deviation.
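Further: 24-mer peptide tiles fused after GFP, lentivirally expressed, FACS-sorted into six equal bins by GFP/DsRed ratio, decoded by Illumina sequencing, PSI is the read-weighted mean bin number.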

For the sequence EPPVTMIFMGYQNVEDEAETKKVL [PALM], the protein stability index is, setting by setting: (treatment: DMSO) 4.07 ± 0.37; (treatment: MLN4924 1 uM, 8 h) 4.09 ± 0.051.

In the case of EQHDLVYGDWTSGENSDGCYEHFA [CLPTM1], the protein stability index reads like this: (treatment: DMSO) 4.53 ± 0.22; (treatment: MLN4924 1 uM, 8 h) 4.41 ± 0.36.

Turning to EQHVHNEKSVLKEVSHPFLIRLFW [PRKX], the protein stability index by setting is: (treatment: DMSO) 2.25 ± 0.25; (treatment: MLN4924 1 uM, 8 h) 2.26 ± 0.081.

For EQKRLERLQRKLVEPKHCFTSPDY [SDE2], the protein stability index (treatment: DMSO) was 3.25 ± 0.35 and the protein stability index (treatment: MLN4924 1 uM, 8 h) is 3.62 ± 0.26.

EQRDQLERTKSRLVNTSENLSKSR [VTI1B]: the protein stability index was 5.18 ± 0.31 (treatment: DMSO) and 5.01 ± 0.18 (treatment: MLN4924 1 uM, 8 h).

As for ERMWAAIQSWDINSRRNINYRSFE [ZER1], the protein stability index stood at 2.28 ± 0.35 (treatment: DMSO) and 2.26 ± 0.25 (treatment: MLN4924 1 uM, 8 h).

Consider ERQEEQSAAIHISETLEQKPHFES [EPB41L3], for which the protein stability index by setting is: (treatment: DMSO) 5.43 ± 0.15; (treatment: MLN4924 1 uM, 8 h) 5.38 ± 0.28.

In the case of ERSRDVVDDVSVSLRLWDTFGDHH [RHOBTB2], the protein stability index amounted to 3.7 ± 0.14 (treatment: DMSO) and 3.63 ± 0.22 (treatment: MLN4924 1 uM, 8 h).

For ESDTDIYETVAAATSESTTVEPGK [DRICH1], the protein stability index by setting is: (treatment: DMSO) 5.66 ± 0.14; (treatment: MLN4924 1 uM, 8 h) 5.6 ± 0.2.

In the case of ESDVKHRTRDYKKTSLAPYVKVFE [PRIM1], the protein stability index is, setting by setting: (treatment: DMSO) 3.39 ± 0.33; (treatment: MLN4924 1 uM, 8 h) 3.62 ± 0.38.

With ESGVHGALLALDENFDHNTLALIL [PPFIA4], the protein stability index amounted to 2.75 ± 0.17 (treatment: DMSO) and 2.96 ± 0.27 (treatment: MLN4924 1 uM, 8 h).

Regarding ESRLKRSNPLAREIFRRHFRQLCY [ZSCAN9], the protein stability index reads like this: (treatment: DMSO) 2.15 ± 0.25; (treatment: MLN4924 1 uM, 8 h) 2.34 ± 0.1.

With ESSSRGEAGAPGEEDIQGPTKADT [CHGB], the protein stability index is, setting by setting: (treatment: DMSO) 5.64 ± 0.29; (treatment: MLN4924 1 uM, 8 h) 5.43 ± 0.32.

Consider ESSTREVVFPYTSKSCMRAVLEYL [RHOBTB2], for which the protein stability index is 2.74 ± 0.13 (treatment: DMSO) and 2.32 ± 0.25 (treatment: MLN4924 1 uM, 8 h).

For ETIQGFWLLTKIDHWNNEKERILL [TPRG1], the protein stability index reads like this: (treatment: DMSO) 2.59 ± 0.44; (treatment: MLN4924 1 uM, 8 h) 2.73 ± 0.59.

For the sequence ETKLDLISKGEEPRAGKEESGVSV [SLC29A1], the protein stability index is, setting by setting: (treatment: DMSO) 5.44 ± 0.15; (treatment: MLN4924 1 uM, 8 h) 5.39 ± 0.52.

In the case of EVEAKFKRYESHPVCADLQAKILQ [CHCHD3], the protein stability index is, setting by setting: (treatment: DMSO) 3.66 ± 0.21; (treatment: MLN4924 1 uM, 8 h) 3.58 ± 0.078.

Regarding EVEELDNWQPAVPLMHMLHLSGAL [SPATS1], the protein stability index by setting is: (treatment: DMSO) 2.18 ± 0.27; (treatment: MLN4924 1 uM, 8 h) 2.16 ± 0.35.

Regarding EVYYDGQWGTVCDDDFSIHAAHVV [LOXL2], the protein stability index turned out to be 2.62 ± 0.31 (treatment: DMSO) and 2.6 ± 0.37 (treatment: MLN4924 1 uM, 8 h).

With EYGTCMCLVKGIFYHCSNDDEGDS [SPRY1], the protein stability index runs as follows: (treatment: DMSO) 3.14 ± 0.21; (treatment: MLN4924 1 uM, 8 h) 3.27 ± 0.23.

In the case of EYNYDWWEKKPFSEDVNWGYEKRN [CHGB], the protein stability index came out at 3.17 ± 0.21 (treatment: DMSO) and 3.19 ± 0.23 (treatment: MLN4924 1 uM, 8 h).

In turn, EYQVLLDVKARLEGEIATYRHLLE [KRT36] registered a protein stability index (treatment: DMSO) of 2.54 ± 0.32 and a protein stability index (treatment: MLN4924 1 uM, 8 h) of 2.53 ± 0.29.

Take FALQSDLDQPAFQQLVSFSESGSL [ISL2]: the protein stability index by setting is: (treatment: DMSO) 2.91 ± 0.37; (treatment: MLN4924 1 uM, 8 h) 3.03 ± 0.3.

Consider FCDMDKSLLCLLCSNSQEHGAHKH [TRIM43], for which the protein stability index came to 2.49 ± 0.37 (treatment: DMSO) and 3 ± 0.67 (treatment: MLN4924 1 uM, 8 h).

For the sequence FDGRHSQTLKAMVQAWPFTCLPLG [PRAME], the protein stability index was found to be 2.38 ± 0.48 (treatment: DMSO) and 2.24 ± 0.36 (treatment: MLN4924 1 uM, 8 h).

In the case of FDPIVLLPCDLPKVVSRAENLSVP [LPCAT4], the protein stability index is, setting by setting: (treatment: DMSO) 2.8 ± 0.2; (treatment: MLN4924 1 uM, 8 h) 2.87 ± 0.3.

Sequence FDVVVCDQVSACIPVFRLARRRKK [ALG2] displayed a protein stability index (treatment: DMSO) of 2.59 ± 0.28 and a protein stability index (treatment: MLN4924 1 uM, 8 h) of 2.62 ± 0.2.

Regarding FECAWNGSDSVIMTGAYNNFFRMF [PPP2R2C], the protein stability index amounted to 2.5 ± 0.35 (treatment: DMSO) and 2.35 ± 0.6 (treatment: MLN4924 1 uM, 8 h).

For the sequence FEVPYYNRGLILYRLGYFDDALED [TTC32], the protein stability index (treatment: DMSO) is 2.5 ± 0.44 and the protein stability index (treatment: MLN4924 1 uM, 8 h) came out at 2.23 ± 0.36.

For FGDSPKAEKRQIGDQEGPRPARST [FBF1], the protein stability index is 5.11 ± 0.47 (treatment: DMSO) and 5.08 ± 0.36 (treatment: MLN4924 1 uM, 8 h).

Turning to FGGGSTRGGSLLAGGGGFGGGSLS [KRT15], the protein stability index by setting is: (treatment: DMSO) 2.54 ± 0.43; (treatment: MLN4924 1 uM, 8 h) 3.11 ± 0.52.

For FGSLPSPKELSSFSFSMKGHEKTA [DLC1], the protein stability index worked out at 3.53 ± 0.19 (treatment: DMSO) and 3.74 ± 0.25 (treatment: MLN4924 1 uM, 8 h).

Turning to FGSQQSPIDVVEKYDPKTQEWSFL [KLHL12], the protein stability index by setting is: (treatment: DMSO) 3.44 ± 0.34; (treatment: MLN4924 1 uM, 8 h) 3.65 ± 0.39.

Turning to FHITNDEPIPFWTFLSRILTGLNY [NSDHL], the protein stability index runs as follows: (treatment: DMSO) 2.45 ± 0.58; (treatment: MLN4924 1 uM, 8 h) 2.2 ± 0.15.

FHVNLGKESRAQTLQNGRRHIHHL [BRF1]: the protein stability index (treatment: DMSO) turned out to be 2.66 ± 0.34 and the protein stability index (treatment: MLN4924 1 uM, 8 h) amounted to 2.93 ± 0.41.

FIIEYYNIRPADSRWVRDPRYRED [FBXO34]: the protein stability index amounted to 2.44 ± 0.53 (treatment: DMSO) and 2.26 ± 0.29 (treatment: MLN4924 1 uM, 8 h).

Turning to FIMLSCVQLQRIPLSAVYRICLGK [TPRG1], the protein stability index by setting is: (treatment: DMSO) 3.06 ± 0.75; (treatment: MLN4924 1 uM, 8 h) 2.01 ± 0.43.

The values are drawn from the supplement of paper PMC10567573.
